T1: FRET substrate GGGFG
T1 chain: GGGFG

T2: FRET substrate GGGLG
T2 chain: GGGLG

T3: FRET substrate GGGSG
T3 chain: GGGSG

T4: FRET substrate GGGYG
T4 chain: GGGYG

T5: FRET-GGGGG (FRET substrate having pentaglycine between Nma and Lys(Dnp))
T5 chain: GGGGG

T6: keratin 10
T6 chain: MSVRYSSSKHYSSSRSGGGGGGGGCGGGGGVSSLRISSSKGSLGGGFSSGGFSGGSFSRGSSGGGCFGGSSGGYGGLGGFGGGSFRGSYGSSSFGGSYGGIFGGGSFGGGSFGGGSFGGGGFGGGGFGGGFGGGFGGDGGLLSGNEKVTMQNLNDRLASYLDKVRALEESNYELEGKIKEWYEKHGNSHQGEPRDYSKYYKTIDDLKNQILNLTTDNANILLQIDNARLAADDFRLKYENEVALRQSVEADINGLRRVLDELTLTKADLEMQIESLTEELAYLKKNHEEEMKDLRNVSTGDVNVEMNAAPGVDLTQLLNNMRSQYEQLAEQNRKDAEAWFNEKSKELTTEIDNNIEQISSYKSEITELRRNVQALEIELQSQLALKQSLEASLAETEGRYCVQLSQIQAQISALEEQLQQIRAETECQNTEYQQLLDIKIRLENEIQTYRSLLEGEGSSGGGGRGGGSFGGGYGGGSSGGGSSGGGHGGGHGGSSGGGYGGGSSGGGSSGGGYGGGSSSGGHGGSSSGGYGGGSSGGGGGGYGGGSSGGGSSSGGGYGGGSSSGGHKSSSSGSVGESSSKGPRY

T7: recombinant loricrin fused with a tag sequence (Recombinant Human Loricrin Protein; Abcam, ab114261)
T7 chain: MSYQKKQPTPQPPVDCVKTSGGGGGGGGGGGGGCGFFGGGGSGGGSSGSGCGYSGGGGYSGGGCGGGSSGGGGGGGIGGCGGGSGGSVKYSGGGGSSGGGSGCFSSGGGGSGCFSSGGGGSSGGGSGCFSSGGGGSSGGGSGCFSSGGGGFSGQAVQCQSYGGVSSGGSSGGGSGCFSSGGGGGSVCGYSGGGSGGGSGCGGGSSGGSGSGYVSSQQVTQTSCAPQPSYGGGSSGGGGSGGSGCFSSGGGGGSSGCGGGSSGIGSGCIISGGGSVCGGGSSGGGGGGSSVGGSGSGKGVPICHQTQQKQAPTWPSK

B1: β-lytic metalloprotease (beta-lytic metallopeptidase; BLP) (protein)
chain: SPNGLLQFPFPRGASWHVGGAHTNTGSGNYPMSSLDMSRGGGWGSNQNGNWVSASAAGSFKRHSSCFAEIVHTGGWSTTYYHLMNIQYNTGANVSMNTAIANPANTQAQALCNGGQSTGPHEHWSLKQNGSFYHLNGTYLSGYRITATGSSYDTNCSRFYLTKNGQNYCYGYYVNPGPN
B2: ALE-1 glycylglycine endopeptidase (ALE-1) (protein)
chain: STKVDAPKVEQEAPAKADAPKVEQEAPAKADAPKVEQEAPAKVDAPKVEQEAPAKVDAPKVEQEAPAKADAPKVEQKRTFVREAAQSNHSASWLNNYKKGYGYGPYPLGINGGNHYGVDFFMNVGTPVRAISDGKIVEAGWTNYGGGNEIGLVENDGVHRQWYMHLSKFNVKVGDRVKAGQIIGWSGSTGYSTAPHLHFQRMTNSFSNNTAQDPMPFLKSAGYGSNSTSSSNNNGYKTNKYGTLYKSESASFTANTDIITRLTGPFRSMPQSGVLRKGLTIKYDEVMKQDGHVWVGYNTNSGKRVYLPVRTWNESTGELGPLWGTIK
B3: Las A protein (LasA or LAS) (protein)
chain: APPSNLMQLPWRQGYSWQPNGAHSNTGSGYPYSSFDASYDWPRWGSATYSVVAAHAGTVRVLSRCQVRVTHPSGWATNYYHMDQIQVSNGQQVSADTKLGVYAGNINTALCEGGSSTGPHLHFSLLYNGAFVSLQGASFGPYRINVGTSNYDNDCRRYYFYNQSAGTTHCAFRPLYNPGLAL
B4: Aeromonas hydrophila proteinase (AhP) (protein)
chain: AGGQFQLPWRQGYSWKANGAHSHTGSGYPYSSIDVSYDWPGWGGATYTVTAANSGTVTVFSRCQVRVTATNGWATNYYHMSGISVRSGDYVAADTPIGTYASNRNEALCEGGSSTGPHLHFSLLYNGVFQSLQGQRLSSYAVNVGASNYDDNCNRFWLYNQRNGQRYCAWQPLYNNGID
B5: Savinase (registered trade name) (SIGMA, P3111) (protein)
chain: AQSVPWGISRVQAPAAHNRGLTGSGVKVAVLDTGISTHPDLNIRGGASFVPGEPSTQDGNGHGTHVAGTIAALNNSIGVLGVAPSAELYAVKVLGASGSGSVSSIAQGLEWAGNNGMHVANLSLGSPSPSATLEQAVNSATSRGVLVVAASGNSGAGSISYPARYANAMAVGATDQNNNRASFSQYGAGLDIVAPGVNVQSTYPGSTYASLNGTSMATPHVAGAAALVKQKNPSWSNVQIRNHLKNTATSLGSTNLYGSGLVNAEAATR
B6: proteinase K (Kanto Chemical Co., Inc., 34076-92) (protein)
chain: AAQTNAPWGLARISSTSPGTSTYYYDESAGQGSCVYVIDTGIEASHPEFEGRAQMVKTYYYSSRDGNGHGTHCAGTVGSRTYGVAKKTQLFGVKVLDDNGSGQYSTIIAGMDFVASDKNNRNCPKGVVASLSLGGGYSSSVNSAAARLQSSGVMVAVAAGNNNADARNYSPASEPSVCTVGASDRYDRRSSFSNYGSVLDIFGPGTSILSTWIGGSTRSISGTSMATPHVAGLAAYLMTLGKTTAASACRYIADTANKGDLSNIPFGTVNLLAYNNYQA
B7: Alcalase (registered trade name) (SIGMA, P4860) (protein)
chain: AQTVPYGIPLIKADKVQAQGFKGANVKVAVLDTGIQASHPDLNVVGGASFVAGEAYNTDGNGHGTHVAGTVAALDNTTGVLGVAPSVSLYAVKVLNSSGSGSYSGIVSGIEWATTNGMDVINMSLGGASGSTAMKQAVDNAYAKGVVVVAAAGNSGSSGNTNTIGYPAKYDSVIAVGAVDSNSNRASFSSVGAELEVMAPGAGVYSTYPTNTYATLNGTSMASPHVAGAAALILSKHPNLSASQVRNRLSSTATYLGSSFYYGKGLINVEAAAQ

One data set concerns the target T1, FRET substrate GGGFG.
Protein B1 gave a Specific activity (U/mg) of 83 U/mg.
Same read-out and setting: the figure for B2 is 0 U/mg; for B3 it is 19 U/mg.
Still for that read-out and setting: the figure for B4 is 51 U/mg.

A further data set has as its target T2, FRET substrate GGGLG.
On to B1, for which the Specific activity (U/mg) is 3 U/mg.
B2 came in with a Specific activity (U/mg) of 0 U/mg.
On the same count and under the same terms, then B3, with 10 U/mg; and B4, with 31 U/mg.

Another data set has as its target T3, FRET substrate GGGSG.
Regarding B1, the Specific activity (U/mg) came to 231 U/mg.
With B2, the Specific activity (U/mg) came to 0 U/mg.
B3 had a Specific activity (U/mg) of 19 U/mg.
B4 displayed a Specific activity (U/mg) of 10 U/mg.

In another data set the target is T4, FRET substrate GGGYG.
In turn, B1 had a Specific activity (U/mg) of 74 U/mg.
The protein B2 came in with a Specific activity (U/mg) of 0 U/mg.
Protein B3 had a Specific activity (U/mg) of 29 U/mg.
B4 yielded a Specific activity (U/mg) of 98 U/mg.

The next data set addresses T5, FRET-GGGGG (FRET substrate having …).
B1 showed a Specific activity (U/mg) of 186 U/mg.
In turn, B2 yielded a Specific activity (U/mg) of 3 U/mg.
Protein B3 came in with a Specific activity (U/mg) of 19 U/mg.
The protein B4 returned a Specific activity (U/mg) of 53 U/mg.

A further data set has as its target corneocyte-derived insoluble keratin (insoluble corneum fraction from the human neck).
Turning to B1, the “Degradation of corneocyte-derived insoluble keratin, SDS-PAGE (ruby staining) of the supernatant” value (“Degradation … of the supernatant” for short) is “A band was detected between the molecular weight marker of 37,000 and the molecular weight marker of 50,000 for all the solutions containing BLP, LasA, and AhP”.
Consider B3, for which the “Degradation … of the supernatant” value is “A band was detected between the molecular weight marker of 37,000 and the molecular weight marker of 50,000 for all the solutions containing BLP, LasA, and AhP”.
B4: the “Degradation … of the supernatant” value was “A band was detected between the molecular weight marker of 37,000 and the molecular weight marker of 50,000 for all the solutions containing BLP, LasA, and AhP”.

In another data set the target is T6, keratin 10.
As for B1, the “Mass spectrometry of the SDS-PAGE band of the enzyme-treated solution” value is “the proteins contained in this band region were fragments of keratin 10”.
Take B3: the “Cleavage of keratin 10, concluded from SDS-PAGE bands and the mass spectrometry of the BLP sample” value is “BLP and other M23A subfamily enzymes cleaved the glycine-rich regions at both ends of the amino acid sequence of keratin 10”.
B4: the “Cleavage of keratin 10, concluded from SDS-PAGE bands and the mass spectrometry of the BLP sample” value was “BLP and other M23A subfamily enzymes cleaved the glycine-rich regions at both ends of the amino acid sequence of keratin 10”.

The next data set deals with keratin azure, which uses wool as a raw material (K8500).
With B1, the “ΔA595 of the supernatant (property of degrading wool keratin)” value (“ΔA595 of the supernatant” for short) is on record as “The absorbance of the samples containing Savinase (registered trade name), Alcalase (registered trade name), or proteinase K was increased compared with that of the samples containing BLP, LasA, or AhP”.
On the same count and under the same terms, then B5, with “The absorbance of the samples containing Savinase (registered trade name), Alcalase (registered trade name), or proteinase K was increased compared with that of the samples containing BLP, LasA, or AhP”; and B3, with “The absorbance of the samples containing Savinase (registered trade name), Alcalase (registered trade name), or proteinase K was increased compared with that of the samples containing BLP, LasA, or AhP”.
On to B6, for which the “ΔA595 of the supernatant” value is “The absorbance of the samples containing Savinase (registered trade name), Alcalase (registered trade name), or proteinase K was increased compared with that of the samples containing BLP, LasA, or AhP”.
With B4, the “ΔA595 of the supernatant” value was “The absorbance of the samples containing Savinase (registered trade name), Alcalase (registered trade name), or proteinase K was increased compared with that of the samples containing BLP, LasA, or AhP”.
Take B7: the “ΔA595 of the supernatant” value is “The absorbance of the samples containing Savinase (registered trade name), Alcalase (registered trade name), or proteinase K was increased compared with that of the samples containing BLP, LasA, or AhP”.

The target of a further data set is keratin solution obtained from human heel corneum.
Consider B1, for which the “Enzymatic degradation of keratin, SDS-PAGE (CBB staining)” value (“Enzymatic degradation of keratin” for short) was “bands were detected between the molecular weight marker of 37,000 and the molecular weight marker of 50,000”.
For B2, the “Enzymatic degradation of keratin” value was “degradation of keratin was not observed for the solutions containing M23B subfamily enzymes ALE-1 and lysostaphin”.
Consider B5, for which the “Enzymatic degradation of keratin” value is “major bands were lost for the solutions containing Savinase (registered trade name), Alcalase (registered trade name), and proteinase K”.
Still for that read-out and setting: then B3, with “bands were detected between the molecular weight marker of 37,000 and the molecular weight marker of 50,000”; and B6, with “major bands were lost for the solutions containing Savinase (registered trade name), Alcalase (registered trade name), and proteinase K”.
With B4, the “Enzymatic degradation of keratin” value was “bands were detected between the molecular weight marker of 37,000 and the molecular weight marker of 50,000”.
In the case of B7, the “Enzymatic degradation of keratin” value was “major bands were lost for the solutions containing Savinase (registered trade name), Alcalase (registered trade name), and proteinase K”.

The next data set has as its target T7, recombinant loricrin fused with a tag ….
Take B1: the “Loricrin-degrading activity, SDS-PAGE and N-terminus sequencing of the remaining bands” value is listed as “none of the N-terminus amino acid sequences of the bands were the sequence of loricrin, the bands were inferred to be derived from the tag sequence”.

The values above are taken from patent US20210071114.
